The values that follow come from publication PMC11143242 (2024).

Common to all, as to assay: SPR
On the technique in general: SPR reads the build-up and loss of mass on a sensor chip optically.

Test [1] deals with T1, CPXV CPXV199 (cowpox virus (CPXV)).
For test [2], the target named is T2, VARV B7 (variola virus (VARV)).
For test [3], the target named is T3, VACV B5 (vaccinia virus (VACV), UniProt Q01227 18-317).
Test [4] addresses T1, CPXV CPXV199. The source holds these as a separate data set.
For test [5], the target named is T2, VARV B7. The source holds these as a separate data set.
Test [6] concerns the target T3, VACV B5. The source holds these as a separate data set.
In a further test the target is MPXV B6 protein (monkeypox virus (MPXV)).

B1: hMB621 (antibody, V domains shown)
VH: QVQLVQSGGGVVQPGRSLRLSCVASGFSISTYPLHWVRQAPGKGLEWVAVISHDGRNKYYADSVKGRFSISRDNSKNTVYLQMNSLRVEDTAVYYCARAYPYAFDVWGQGTLVTVSS
VL: EIVLTQSPATLSVSPGETATLSCRASQSVRNDLAWYQQKPGQAPRLLIYGASTRASGIPARFSGSGSGTEFTLTISSLQSEDFAIYYCQQYKDWPPWTFGQGTKVEIK
B1: the equilibrium dissociation constant (Kd) – broadly, the equilibrium constant for the complex coming apart – worked out at 2.6 nM in the test with CPXV CPXV199 [1], 5.1 nM with VARV B7 [2] and 2.8 nM in the test with VACV B5 [3]. Further, the off-rate (koff) (in general, the first-order rate constant of dissociation) with CPXV CPXV199 [4] was found to be 0.00011 s⁻¹; with VARV B7 [5], 0.00019 s⁻¹; in the test with VACV B5 [6] it was 0.00017 s⁻¹; with MPXV B6 protein, 9.7e-05 s⁻¹.

B2: hMB668 (antibody, V domains shown)
VH: QVQLVQSGAEVKKPGSSVKVSCKSSGGTFSDYAINWVRQAPGQGLEWMGRILPIVGVPNYAQKFQGRVTITADKSSSTAYKEVSGLRSEDTAVYYCARRSGINGHGLDVWGQGTTVIVSS
VL: DIVMTQSPLSLPVTPGEPASISCRSSQSLLNTNGYNYLEWYLHKPGQSPQLLIYLGSHRASGVPDRFSGSGSGTDFTLKISRAEPEDVGVYYCMQTLQTQGYTFGQGTKLEIK
For B2, the dissociation constant Kd with CPXV CPXV199 [1] was 27.2 nM; with VARV B7 [2], 15.8 nM; with VACV B5 [3], 3.1 nM. Also, the off-rate (koff) came to 0.00011 s⁻¹ in the test with CPXV CPXV199 [4], 5.5e-05 s⁻¹ with VARV B7 [5], 8.2e-05 s⁻¹ with VACV B5 [6] and 7.8e-05 s⁻¹ with MPXV B6 protein.
